According to patent publication US7553630:

Assays:
[1] = test system: peptide 1 (19 kDa) from plasmin digestion of CHO-derived human MI
[2] = test system: peptide 3 (13.5 kDa) from plasmin digestion of CHO-derived human MI
[3] = target: type I collagenase in activated conditioned medium from TPA-treated rabbit synovial fibroblasts (rabbit) (UniProt P13943); assay: cell-based or functional assay
[4] = target: E. coli-derived recombinant human metalloproteinase inhibitor (MI)
[5] = target: CHO cell-derived recombinant human metalloproteinase inhibitor (MI)

Chain of peptide 3 (13.5 kDa) from plasmin digestion of CHO-derived human MI (chain, as listed by the source): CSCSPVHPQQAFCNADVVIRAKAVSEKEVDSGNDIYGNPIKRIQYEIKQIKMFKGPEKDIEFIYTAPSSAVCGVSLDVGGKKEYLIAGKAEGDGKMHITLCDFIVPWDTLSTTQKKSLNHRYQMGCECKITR

gelatinase(s) in activated conditioned medium from TPA-treated rabbit synovial fibroblasts
SDS-gelatin PAGE of a plasmin digest of MI [1]: These peptides retained their anticollagenase activity as shown by the SDS-gelatin PAGE
SDS-gelatin PAGE of a plasmin digest of MI [2]: These peptides retained their anticollagenase activity as shown by the SDS-gelatin PAGE

bovine peak II-derived metalloproteinase inhibitor (from UniProt P20414 24-207)
Specific activity (units/mg), radiolabeled collagen film collagenase inhibition assay [3]: 1780 units/mg

B1: type I collagenase in activated conditioned medium from TPA-treated rabbit synovial fibroblasts (protein)
chain: FVLTPGNPRWEQTHLTYRIENYTPDLSRADVDNAIEKAFQLWSNVTPLTFTKVSKGQADIMISFVRGDHRDNSPFDGPEGQLAHAFQPGLGIGGDVHFDEDDRWTKDFRNYNLYRVAAHELGHSLGLSHSTDIGALMYPNYMFSGDVQLAQDDIDGIQAIYGPSQNPSQPVGPQTPKVCDSKLTFDAITTIRGEIMFFKDRFYMRANPYYSEVELNFISVFWPHLPNGLQAAYEVAHRDEILFFKGNKYWTVQGQNELPGYPKDIHSSFGFPRSVNHIDAAVSEEDTGKTYFFVANKYWRYDEYKRSMDAGYPKMIEYDFPGIGNKVDAVFKKDGFFYFFHGTRQYKFDPKTKRILTLQKANSWFNCRKN
SDS-PAGE and autoradiography of specific collagen cleavage; MI at about 2 µg/ml [4]: also inhibited the specific collagen cleavage characteristic of mammalian collagenases

B2: rabbit fibroblast interstitial collagenase (42-kDa activated enzyme, APMA-activated) (protein)
chain: B1 chain
SDS-PAGE and autoradiography of 14C type I collagen cleavage products; 4.6 pmol MI, 2.1 pmol collagenase [5]: The initial cleavage of the collagen as well as its further degradation were completely blocked by recombinant human MI.

B3: human plasmin (protein)
chain: KVYLSECKTGNGKNYRGTMSKTKNGITCQKWSSTSPHRPRFSPATHPSEGLEENYCRNPDNDPQGPWCYTTDPEKRYDYCDILECEEECMHCSGENYDGKISKTMSGLECQAWDSQSPHAHGYIPSKFPNKNLKKNYCRNPDRELRPWCFTTDPNKRWELCDIPRCTTPPPSSGPTYQCLKGTGENYRGNVAVTVSGHTCQHWSAQTPHTHNRTPENFPCKNLDENYCRNPDGKRAPWCHTTNSQVRWEYCKIPSCDSSPVSTEQLAPTAPPELTPVVQDCYHGDGQSYRGTSSTTTTGKKCQSWSSMTPHRHQKTPENYPNAGLTMNYCRNPDADKGPWCFTTDPSVRWEYCNLKKCSGTEASVVAPPPVVLLPDVETPSEEDCMFGNGKGYRGKRATTVTGTPCQDWAAQEPHRHSIFTPETNPRAGLEKNYCRNPDGDVGGPWCYTTNPRKLYDYCDVPQCAAPSFDCGKPQVEPKKCPGRVVGGCVAHPHSWPWQVSLRTRFGMHFCGGTLISPEWVLTAAHCLEKSPRPSSYKVILGAHQEVNLEPHVQEIEVSRLFLEPTRKDIALLKLSSPAVITDKVIPACLPSPNYVVADRTECFITGWGETQGTFGAGLLKEAQLPVIENKVCNRYEFLNGRVQSTELCAGHLAGGTDSCQGDSGGPLVCFEKDKYILQGVTSWGLGCARPNKPGVYVRVSRFVTWIEGVMRNN
plasmin conversion of the 52-kDa proenzyme to the 46-kDa intermediate (SDS-PAGE) [5]: The addition of MI had no effect on the conversion of the 52-kDa proenzyme to the 46-kDa intermediate (lane 4)

B4: plasmin-treated rabbit fibroblast interstitial procollagenase (46-kDa intermediate) (protein)
chain: GNGLAVEKLKQMQEFFGLKVTGKPDAETLKMMKQPRCGVPDVAQFVLTPGNPRWEQTHLTYRIENYTPDLSRADVDNAIEKAFQLWSNVTPLTFTKVSKGQADIMISFVRGDHRDNSPFDGPEGQLAHAFQPGLGIGGDVHFDEDDRWTKDFRNYNLYRVAAHELGHSLGLSHSTDIGALMYPNYMFSGDVQLAQDDIDGIQAIYGPSQNPSQPVGPQTPKVCDSKLTFDAITTIRGEIMFFKDRFYMRANPYYSEVELNFISVFWPHLPNGLQAAYEVAHRDEILFFKGNKYWTVQGQNELPGYPKDIHSSFGFPRSVNHIDAAVSEEDTGKTYFFVANKYWRYDEYKRSMDAGYPKMIEYDFPGIGNKVDAVFKKDGFFYFFHGTRQYKFDPKTKRILTLQKANSWFNCRKN
conversion of the 46-kDa intermediate to the 42-kDa active enzyme at 37° C. (SDS-PAGE); 27 pmol MI, 16 pmol procollagenase [5]: the conversion of the 46-kDa intermediate to the 42-kDa active enzyme which should have occurred at 37 °C was completely blocked by MI
